Experimental data published in patent publication US7445894B2, “Compositions and methods for detection and isolation of phosphorylated molecules” (priority 2002, dated 2008).

What was measured:
[1] = system: phosphopeptides; experiment: Quantitative binding of phosphopeptides using streptavidin ferrofluid particles; conditions: 550 pmoles phosphopeptides, particles saturated with Compound 9, charged with GaCl3, eluted with 0.15 M ammonium hydroxide
Procedure: Quantitative binding of phosphopeptides was accomplished using labeled ferrofluid particles. Streptavidin ferrofluid particles were labeled with Compound 9 until saturated. After washing away unbound dye, the particles were charged with 0.1 M GaCl3, then washed with 0.1 M NaOAc, pH 4.0. 100 μL of magnetic particles (4 mg/mL) was added with standard peptide mix containing 550 picomoles of phosphopeptides. The mixture was incubated for 20 min while gently vortexing. The particles were isolated using a magnetic separator and the resulting supernatant was removed. The beads were washed 2× with 100 μL 100 mM NaOAc, pH 4.0 and the phosphopeptides were eluted with 0.15 M ammonium hydroxide. Greater than 95% of the phosphopeptides (550 pmoles) were isolated.

[2] = system: T1, Abl peptide (New England Biolabs), substrate for Abl tyrosine kinase
T1 sequence: EAIYAAPFAKKK

[3] = system: T2, Kemptide (non-phosphorylated)
T2 sequence: LRRASLG

[4] = system: T3, Glycogen synthase 1-10 peptide (Calbiochem)
T3 sequence: PLSRTLSVSS

[5] = system: T4, crosstide, biotinylated synthetic peptide
T4 sequence: GRPRTSSFAEG

[6] = system: Bovine muscle myosin light chain
[7] = molecular target: pp60 c-src (pY), phosphorylated form of the pp60 c-src peptide; experiment: peptide microarray on HydroGel slides; primary antibody at 1.5 µg/mL, then Alexa Fluor 647 goat anti-mouse; 632.8 nm excitation / 670 nm emission
[8] = molecular target: pp60 c-src (pY), phosphorylated form of the pp60 c-src peptide; experiment: peptide microarray on HydroGel slides; primary antibody, then Zenon One Alexa Fluor 647 mouse IgG labeling reagent; 632.8 nm excitation / 670 nm emission

Sequence of Abl Protein Tyrosine Kinase (NEB) (P00520 whole entry): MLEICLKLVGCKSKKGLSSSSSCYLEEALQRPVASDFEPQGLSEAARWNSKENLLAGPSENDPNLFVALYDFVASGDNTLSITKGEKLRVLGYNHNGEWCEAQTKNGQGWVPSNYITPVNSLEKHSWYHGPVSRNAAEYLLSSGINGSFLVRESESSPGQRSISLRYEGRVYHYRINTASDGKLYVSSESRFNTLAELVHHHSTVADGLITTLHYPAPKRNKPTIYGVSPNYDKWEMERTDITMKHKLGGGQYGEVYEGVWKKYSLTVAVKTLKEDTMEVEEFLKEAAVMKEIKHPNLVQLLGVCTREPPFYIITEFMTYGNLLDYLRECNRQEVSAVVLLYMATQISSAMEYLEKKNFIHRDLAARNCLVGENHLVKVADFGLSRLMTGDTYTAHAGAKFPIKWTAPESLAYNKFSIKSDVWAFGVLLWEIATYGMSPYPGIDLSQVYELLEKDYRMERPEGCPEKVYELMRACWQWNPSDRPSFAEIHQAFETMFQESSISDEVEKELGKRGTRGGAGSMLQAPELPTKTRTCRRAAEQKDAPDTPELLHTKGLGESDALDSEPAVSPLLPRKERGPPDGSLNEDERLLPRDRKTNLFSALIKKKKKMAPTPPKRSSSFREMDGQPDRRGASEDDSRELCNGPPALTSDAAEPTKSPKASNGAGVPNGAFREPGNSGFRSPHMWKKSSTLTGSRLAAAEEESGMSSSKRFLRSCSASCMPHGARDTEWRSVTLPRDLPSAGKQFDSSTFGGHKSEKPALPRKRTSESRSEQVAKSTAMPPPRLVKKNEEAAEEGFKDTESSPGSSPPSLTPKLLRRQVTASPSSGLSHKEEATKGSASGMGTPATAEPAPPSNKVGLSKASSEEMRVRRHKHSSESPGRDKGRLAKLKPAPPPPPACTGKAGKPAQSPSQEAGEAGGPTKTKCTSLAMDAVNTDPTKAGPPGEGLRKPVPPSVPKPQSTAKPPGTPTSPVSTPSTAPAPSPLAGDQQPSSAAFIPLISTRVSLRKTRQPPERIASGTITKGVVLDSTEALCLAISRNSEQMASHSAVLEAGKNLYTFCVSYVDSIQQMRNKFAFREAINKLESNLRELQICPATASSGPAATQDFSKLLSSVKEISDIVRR
Sequence of Akt/Protein Kinase B (P31749 whole entry): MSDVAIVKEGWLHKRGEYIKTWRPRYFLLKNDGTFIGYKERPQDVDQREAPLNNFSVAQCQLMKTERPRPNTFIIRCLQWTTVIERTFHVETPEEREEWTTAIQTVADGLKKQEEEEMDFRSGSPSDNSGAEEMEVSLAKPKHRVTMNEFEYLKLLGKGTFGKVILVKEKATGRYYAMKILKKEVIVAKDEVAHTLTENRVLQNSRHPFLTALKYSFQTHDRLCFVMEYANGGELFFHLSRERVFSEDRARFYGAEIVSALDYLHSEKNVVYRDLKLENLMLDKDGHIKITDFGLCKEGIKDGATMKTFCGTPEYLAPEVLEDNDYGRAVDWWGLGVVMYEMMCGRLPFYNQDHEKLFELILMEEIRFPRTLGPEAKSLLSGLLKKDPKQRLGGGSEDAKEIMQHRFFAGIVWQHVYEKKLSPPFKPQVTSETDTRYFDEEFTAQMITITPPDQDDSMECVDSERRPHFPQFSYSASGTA

4-(N-(5″-biotinylaminopentyl)aminocarbonyl)-rhod tetrapotassium salt [Compound 9]
phosphopeptides isolated [1]: Greater than 95%

Abl Protein Tyrosine Kinase (NEB)
fluorescent labeling (Compound 2/Ga3+) of arrayed peptide after kinase reaction [2]: Abl peptide substrate is the only fluorescently labeled peptide on the array | fluorescent labeling (Compound 2/Ga3+) of arrayed peptide after kinase reaction with ATP-γ-S or ATP [2]: Abl peptide substrate is the only fluorescently labeled peptide on the array | sensitivity of detection after kinase reaction [2]: Sensitivity of detection after kinase reaction is at least 0.18 ng or 0.14 pmol | sensitivity of detection after kinase reaction with ATP (control) [2]: 0.325 pg of Abl peptide, in the control reaction using ATP, was labeled and detected | sensitivity of detection after kinase reaction with ATP-γ-S [2]: Sensitivity of detection after kinase reaction was 2.6 pg of the peptide labeled using ATP-γ-S | fluorescent labeling (Compound 2/Ga3+) of arrayed peptide after kinase reaction; Kemptide not labeled [3]: Abl peptide substrate is the only fluorescently labeled peptide on the array | fluorescent labeling (Compound 2/Ga3+) of arrayed peptide after kinase reaction; Glycogen Synthase 1-10 not labeled [4]: Abl peptide substrate is the only fluorescently labeled peptide on the array

Akt/Protein Kinase B
fluorescent signal (Compound 2/Ga3+) of peptide charged beads, exposed to kinase against not exposed [5]: The fluorescent signal of the peptide charged beads exposed to Akt/PKB kinase was found to be 2.2-fold higher, with no overlap in standard deviation, than the control peptide charged beads not exposed to enzyme

Calcium-Calmodulin-Dependent protein Kinase II (New England BioLabs)
fluorescent labeling (Compound 2/Ga3+) of arrayed peptide after kinase reaction; Abl peptide not labeled [2]: glycogen synthase peptide is the only fluorescently labeled peptide on the array | phosphoprotein stain signal (Compound 2/Ga3+) of the gel band, kinase reaction against no-enzyme control [6]: the signal from the band in the lane corresponding to the reaction containing the enzyme 3.4-fold greater than the no-enzyme control | fluorescent labeling (Compound 2/Ga3+) of arrayed peptide after kinase reaction [4]: glycogen synthase peptide is the only fluorescently labeled peptide on the array | sensitivity of detection after kinase reaction [4]: Sensitivity of detection after kinase reaction is at least 0.375 ng or 0.35 pmol

phosphotyrosine monoclonal antibody P-Tyr-100 (Cell Signaling Tech.)
sensitivity of detection [7]: 5.2 pg | sensitivity of detection [8]: 0.65 pg
